Source: patent US10053716B2, “4-amino cinnamic acid production method using enzyme” (JAPAN SCIENCE AND TECHNOLOGY AGENCY, priority 2014, dated 2018)

What was measured:
[1] = PAL activity of Escherichia coli recombinant enzyme crude extract; assay type: biochemical; details: crude cell extract, BL21(DE3), 20 mM substrate
Method: (§1) [Measurement of Enzyme Activity of Escherichia coli Recombinant Enzyme Crude Extract]
(§2) Escherichia coli was inoculated into 5 ml of LB medium containing 100 mg/L ampicillin sodium or 100 mg/L kanamycin sulfate, and cultured overnight at 37° C. It was then inoculated into 200 ml of the same culture medium and cultured to an O.D. of 0.6, isopropyl-β-thiogalactopyranoside (IPTG) was added to a final concentration of 0.5 mM, and culturing was conducted for 12 hours at 28° C.
(§3) The cultured cells were collected and suspended in 20 mM potassium phosphate buffer (pH 7.5) and subjected to ultrasonic disruption and the supernatant was used as a crude extract for activity measurement. The enzyme activity was measured and quantified by measuring the absorbance at the absorption wavelength of the reaction product using a spectrophotometer, for a period of 5 minutes. For PAL activity, the crude extract was added to 100 mM Tris Buffer (pH 8.0) and 20 mM phenylalanine, reaction was conducted, and production of cinnamic acid was measured by the change in absorbance at a wavelength of 290 nm, while for 4APAL activity, 20 mM 4-aminophenylalanine was used as substrate and the absorbance at a wavelength of 315 nm due to 4-aminocinnamic acid was measured and quantified.

[2] = 4APAL activity of Escherichia coli recombinant enzyme crude extract; assay type: biochemical; details: crude cell extract, BL21(DE3), 20 mM substrate
Method: as §1, §2, §3

[3] = Km and kcat of recombinant purified enzyme for phenylalanine; assay type: biochemical; details: purified His-tag enzyme
Method: (§4) [Measurement of Enzyme Activity of Escherichia coli Recombinant Purified Enzyme]
(§5) Escherichia coli was inoculated into 5 ml of LB medium containing 100 mg/L ampicillin sodium or 100 mg/L kanamycin sulfate, and cultured overnight at 37° C. It was then used to inoculate 200 ml of the same culture medium and cultured to an O.D of 0.6, IPTG was added to a final concentration of 0.5 mM, and the incubation was continued for 12 hours at 28° C. The rotational speed during cultures was 120 rpm. The cultured cells were collected and suspended in 20 mM potassium phosphate buffer (pH 7.5) and subjected to ultrasonic disruption, and after centrifugal separation, the supernatant was purified using a His-Trap column and the enzyme activity was measured. The method of measuring the enzyme activity was according to the method for the crude extract described above.
(§6) Since pET28AtPAL4 and its mutants and RgPAL were produced as fusion proteins with His-tag in the Escherichia coli of Example 3, these enzymes could be easily purified using an affinity column. After culturing the producing cells, the cells were collected, disrupted and purified. The purified enzymes were used to calculate the Km values and kcat values.

[4] = Km and kcat of recombinant purified enzyme for 4-aminophenylalanine; assay type: biochemical; details: purified His-tag enzyme
Method: as §4, §5, §6

[5] = Resting cell reaction, production of 4-aminocinnamic acid; assay type: cell-based, Escherichia coli
Method: (§7) Escherichia coli was cultured at 37° C. using LB medium containing 100 mg/L ampicillin sodium or 100 mg/L kanamycin sulfate. One platinum loop of the cells was transferred from pregrown agar medium to a test tube containing 5 ml of culture medium, and shake-culture was conducted overnight at 120 rpm.
(§8) The precultured cells were transferred at 1% into 200 ml of the same medium in a baffle-equipped flask. Shake-culture was conducted at 37° C., a prescribed amount of IPTG was added at the point when the O.D. of the culture broth reached 0.3, and the culture was conducted at 28° C. for 12 hours to induce production of the target gene.
(§9) The main cultured cells were collected and rinsed once with 50 mM KPi Buffer (pH 7), and then suspended in 5 ml of a reaction mixture containing 20 mM substrate (4-aminophenylalanine, phenylalanine), for resting cell reaction. The reaction was conducted for 0 to 24 hours while shaking at 37° C. After the reaction, the supernatant was transferred to a centrifuge tube and recovered by centrifugal separation, and high-performance liquid chromatography (HPLC) was used in the following manner for quantitation of the reaction product.
HPLC (1200 infinity series: Hewlett Packard) was used for quantitation. A Purospher STAR RP-18 endcapped column was used, with a mixture of 20 mM potassium phosphate (pH 7.0) and 100% methanol as the eluent. Measurement was carried out using absorption at wavelengths of 210 nm, 254 nm and 280 nm.
The Escherichia coli BL21-pET28a-RgPAL cells were prepared by the following method. Escherichia coli BL21-pET28a-RgPAL was shake cultured overnight at 37° C., 120 rpm using medium containing 100 mg/L kanamycin sulfate in 5 ml of LB medium (1% tryptone, 0.5% yeast extract, 0.5% sodium chloride). A 2 mL portion of the obtained cell culture solution was transferred into 200 ml of the same medium in a 500 mL-volume Erlenmeyer flask, and then shake cultured at 37° C., 120 rpm. IPTG was added when the optical density of the culture reached 0.3, and shake culture was conducted at 28° C., 120 rpm for 12 hours. The obtained Escherichia coli BL21-pET28a-RgPAL cells were collected by centrifugal separation and rinsed once with 50 mM potassium phosphate (pH 7), after which they were suspended in the same buffer containing 20 mM of substrate (4-aminophenylalanine or phenylalanine), and incubated for 24 hours while shaking at 37° C. After the reaction, the produced 4-aminocinnamic acid or cinnamic acid was quantified using HPLC. Reaction was also carried out in aqueous 50 mM potassium phosphate at pH 8 or 9, using the same method as above. […] In particular, the conversion efficiency increased by 12-fold at pH 7.

[6] = Resting cell reaction, production of cinnamic acid; assay type: cell-based, Escherichia coli; details: 4-aminophenylalanine alone as substrate
Method: as §7, §8, §9
HPLC (1200 infinity series: Hewlett Packard) was used for quantitation. A Purospher STAR RP-18 endcapped column was used, with a mixture of 20 mM potassium phosphate (pH 7.0) and 100% methanol as the eluent. […]

B1: RgPAL: PAL derived from the yeast Rhodotorula glutinis, amino acid sequence SEQ ID NO: 2 (protein)
chain: MAPSVDSIATSVANSLSNGLAGDLRKKTSGAGSLLPTTETTQIDIVERILADAGATDQIKLDGYTLTLGDVVGAARRGRTVKVADSPQIREKIDASVEFLRTQLDNSVYGVTTGFGGSADTRTEDAISLQKALLEHQLCGVLPTSMDGFALGRGLENSLPLEVVRGAMTIRVNSLTRGHSAVRIVVLEALTNFLNHGITPIVPLRGTISASGDLSPLSYIAASITGHPDSKVHVDGQIMSAQEAIALKGLQPVVLGPKEGLGLVNGTAVSASMATLALTDAHVLSLLAQANTALTVEAMVGHAGSFHPFLHDVTRPHPTQIEVARNIRTLLEGSKYAVHHETEVKVKDDEGILRQDRYPLRCSPQWLGPLVSDMIHAHSVLSLEAGQSTTDNPLIDLENKMTHHGGAFMASSVGNTMEKTRLAVALMGKVSFTQLTEMLNAGMNRALPSCLAAEDPSLSYHCKGLDIAAAAYTSELGHLANPVSTHVQPAEMGNQAINSLALISARRTAEANDVLSLLLATHLYCVLQAVDLRAMEFEHTKEFEPMVTDLLKQHFGALATADVEDKVRKSIYKRLQQNNSYDLEQRWHDTFSVATGAVVEALAGNEVSLASLNAWKVACAEKAIALTRTVRDSFWAAPSSASPALKYLSPRTRILYSFVREDVGVKARRGDVYLGKQEVTIGTNVSRIYEAIKDGRIAPVLVKMMA
modifications: RgPAL cDNA
For B1, the “PAL activity compared to AtPAL4” value [1] was 8.5 fold, the “4APAL activity compared to AtPAL4” value [2] was 8 fold and the “4APAL activity compared to AtPAL4” value ([2]; listed as enzyme of the invention) was “approximately 8 fold”. The “Kcat value, Phenylalanine” value [3] was 3.4 s⁻¹, the Km [3] was 0.098 mM and the “Kcat value, 4-Aminophenylalanine” value [4] was 0.44 s⁻¹. The Km [4] was 22 mM, the “4-aminocinnamic acid production reached” value [5] was “about 1 g/L” and the “4-aminocinnamic acid amount compared to AtPAL4” value ([5]; 4-aminophenylalanine alone as substrate) was 12 times. The “conversion efficiency increase compared to AtPAL4” value ([5]; pH 7) was 12 fold, the “4-aminocinnamic acid produced, maximum” value ([5]; resting cells reaction) was 825 mg/L and the “cinnamic acid produced compared to AtPAL4” value [6] was 36%.
